Reference: paper doi:10.1101/2020.06.17.153486

How the values were obtained:
[1] = target: SARS-CoV-2 spike trimer (S trimer), soluble ectodomain (SARS-CoV-2) (UniProt P0DTC2); experiment: cryo-EM structure
[2] = target: SARS-CoV-2 spike trimer (S trimer), soluble ectodomain (SARS-CoV-2, Wuhan-Hu-1 type); experiment: cryo-EM structure

| Substance | stoichiometry N (Fab per trimer) [1] | stoichiometry N (Fab per trimer) [2] |
| --- | --- | --- |
| 2-43 Fab | 3 |  |
| 4-8 Fab |  | 3 |
